# Experimental data taken from PMC3340446.
# Assays:
# [1] = molecular target: Trypanosoma brucei AlkB homolog (TbABH-His6) (Trypanosoma brucei brucei (strain 427 genomic DNA)); assay: native gel or EMSA
# [2] = molecular target: Trypanosoma brucei AlkB homolog (TbABH-His6) (Trypanosoma brucei brucei (strain 427 genomic DNA)); assay: SEC
substance,measurement,setting,value
Trypanosoma brucei AlkB homolog (TbABH-His6) (enzyme),stoichiometry N,[1],4
same,stoichiometry N,[2],2
